Assay results as given in patent publication US20030166537A1, “Use of GDNF for treating corneal defects” (Biopharm Gesellschaft Zur Biotechnologischen Entwicklung …, priority 1999, published 2003).

Legend:
Format in all cases: cell-based
[1] = tested on: FAK, Pyk2, cRaf, MEK1, Erk 1 and 2, Elk, RSK; test: western blot of phosphorylated intracellular signaling proteins in corneal epithelial cells; conditions: 250 ng/ml artemin for 10, 20, 40 and 60 minutes; human corneal epithelial cells
[2] = tested on: primary rabbit corneal epithelial cells; test: single cell clonal growth assay (colony formation, clonal proliferation); conditions: 250 ng/ml
Description: In order to evaluate the effect of GDNF on corneal proliferation, recombinant human GDNF was used (R&D, Minneapolis, Minn., USA). For the evaluation of the effect on corneal epithelial proliferaton a single cell clonal growth model was utilized which allows to determine the effect of the given growth factor on both colony formation as well as clonal expansion (Kruse et al., 1991). New Zealand white rabbits were housed and treated according to the ARVO Resolution of Animals in Research and under observation of German Federal Laws and the laws of the State of Baden-Württemberg. Prior to sacrifice with an intravenous overdose of pentobarbital, they received an intramuscular injection of xylazine hydrochloride and ketamine hydrochloride. The details of the clonal growth assay are described in Kruse et al. (1991). 5000 viable cells were seeded in each 16 mm dish in serum-free medium MCDB 151 with a supplement (S) of insulin (5 μg/ml), transferrin (5 μg/ml), selenium (5 ng/ml) and hydrocortisone (5 μg/ml) (all from Sigma, Deisenhofen, Germany). […] This quantification was facilitated by the use of dishes which contained a grit on the bottom which is roughly 2 mm wide (from Sarstedt, Newton, N.C., USA). For data collection the entire surface area of four randomly selected dishes for each condition was screened. Furthermore, the number of cells per colony was determined in 75 randomly selected colonies for each condition. Furthermore, the total number of cells/dish was calculated in order to carry out an evaluation for artemin. In order to stimulate the cellular proliferation, GDNF (50 or 200 ng/ml) or artemin (250 ng/ml) was added to the medium. In order to estimate the rate of proliferation after 12 days (a time when neighbouring colonies started to grow into each other and, therefore, prevented numerical quantification) dishes were fixed in −20° C. methanol and stained with methylene blue.
All experiments examining the effect of GDNF on corneal proliferation were performed in triplicate with cells from different donors. The influence of growth factor on colony formation, colony size and cell number was studied using one-way analysis of variance. […] Student's t-test was employed to determine which differences were significant after analysis of variance.

[3] = tested on: primary rabbit corneal epithelial cells; test: in vitro wound healing assay (scratch wound), artemin; conditions: 100 ng/ml; within 6 h; control about 20%
Method: For in vitro wound healing assays primary corneal epithelial cells and cells from the corneal epithelial cell line were seeded at a density of 5×10^5 onto 60 mm plastic dishes with 2 mm grid (Sarstedt, Numbrecht, Germany) and cultured for 2 days until subconfluency. For experiments with artemin primary cultured rabbit corneal epithelial cells were used. These cells had been isolated with Dispase (1,2 U/ml) and trypsin/EDTA. Rabbit cells had been cultured in medium 500 with additives (Cascade Biologies).
The cell layer was injured under the microscope by inducing several parallel scratches with a soft plastic cell scrubber (Falcon, Becton and Dickinson, Heidelberg, Germany). The tip of the scrubber was cut and measured about 1 mm and consequently the width of the scratch in the cell layer was also about 1 mm. Selected areas in the dishes were marked with a very fine marker pen and consecutive images were taken at different time points at 5×magnification under an inverted phase contrast microscope (Axiovert 25, Zeiss, Jena, Germany) equipped with a video camera. […] For each condition four representative areas were evaluated within three dishes. […] 18 hours later the mean diameter of the same scratch was calculated again and expressed in percent of the diameter at the beginning of the experiment.

B1: artemin: GDNF family member, also referred to as enovin or neublastin (SEQ ID NO 5) (protein)
chain: CRLRSQLVPVRALGLGHRSDELVRFRFCSGSCRRARSPHDLSLASLLGAGALRPPPGSRPVSQPCCRPTRYEAVSFMDVNSTWRTVDRLSATACGC
modifications: artemin
In the case of B1, the “phosphorylated Erk 1 and 2” value [1] is reported as “gradually increased”, the “phosphorylated MEK” value [1] is reported as “increasing amount” and the “total number of cells per dish” value ([2]; control 200±98 cells, p<0.001) is reported as “significantly increased”. The “total number of colonies” value ([2]; day 6, control 40±20) was 79±38 and the “gap in the cell monolayer filled” value [3] was 29±8%.
